Measurements from the DeepSol protein solubility set.

Experiment: soluble on expression in E. coli; label from the status in PepcDB or PDB records

Sequence | soluble on expression in E. coli
MSKALASDEKDDWITHLKAISNVFTQVCTLSASEESAKKLAIKEREECLQELVELRAIAEAHDDVIQQFHLLLAANHQGDATSRQIFNDMKQEVGDNMERIQEHRLVEAKLNVEKRRNERMAKHINEVSKKSVMHLMATRFYARELAAMRQMMDLVRNAATIESAVKSKLWDEIEKENRLLRLNTLWLINRINSSDLGDAAFENGDDWQSSPRLVILMREHINQGLGLEITGGCDQFRPVVVTGKLKRSMADDDQLRVNDRILAIDGTFVTNTTTHAEVMEMLENESAKDFISLIVSQFDPTKYHEAHPNGKCHKFVSTPISGKADSGEDV | not soluble
MSKFWSPFVKDLVPYVPGEQPKLSRLVKLNTNENPYGPSPQALAAMQAELNDDLRLYPDPNGERLKQAVAAHYGVQANQVFVGNGSDEVLAHIFHGLFQHDLPLLFPDVTYSFYPVYCGLYGIAHEKIALDERFRIRVEDYARPNGGIIFPNPNAPTGCLLPLDAIEAMLKASPDSVVVVDEAYVDFGGESAIALVDRYPNLLVTQTLSKSRSLAGLRVGLAVGHADLVEALERIKNSFNSYPLDRLAIAGAAAAFEDDAYFRRTCQAVIDSREALSASLQALGFEVLPSAANFVFARHPRHDAGQIASTLREQGVIVRHFKQARIDQFLRITIGSPEQNQALLDALHFLK | not soluble
MSKIADDQNFNDEEENFAKLFKKELEKEETLEKGTIKEGLVVSINENDGYAMVSVGGKTEGRLALNEITDEKGQLLYQKNDPIIVHVSEKGEHPSVSYKKAISQQKIQAKIEELGENYENAIIEGKIVGKNKGGYIVESQGVEYFLSRSHSSLKNDANHIGKRVKACIIRVDKENHSINISRKRFFEVNDKRQLEVSKELLEATEPVLGVVRQITPFGIFVEAKGIEGLVHYSEISHKGPVNPEKYYKEGDEVYVKAIAYDAEKRRLSLSIKATIEDPWEEIQDKLKPGYAIKVVVSNIEHYGVFVDIGNDIEGFLHVSEISWDKNVSHPNNYLSVGQEIDVKIIDIDPKNRRLRVSLKQLTNRPFDVFESKHQVGDVLEGKVATLTDFGAFLNLGGVDGLLHNHDAFWDKDKKCKDHYKIGDVIKVKILKINKKDKKISLSAKHLVTSPTEEFAQKHKTDSVIQGKVVSIKDFGVFINADGIDVLIKNEDLNPLKKDEIKIGQEITCVVVAIEKSNNKVRASVHRLERKKEKEELQAFNTSDDKMTLGDILKEKLLEHHHHHH | soluble
MSKISSVLIDLSGTIHIEEFAIPGAQTALELLRQHAKVKFVTNTTKESKRLLHQRLINCGFKVEKEEIFTSLTAARDLIVKNQYRPFFIVDDRAMEDFEGISTDDPNAVVIGLAPEKFNDTTLTHAFRLIKEKKASLIAINKGRYHQTNAGLCLGPGTYVAGLEYSAGVEATIVGKPNKLFFESALQSLNENVDFSSAVMIGDDVNDDALGAIKIGMRAILVKTGKFRDGDELKVKNVANSFVDAVNMIIENKVENG | not soluble
MSKKRGLSGEEKRTRMMEIFFETKDVFQLKDLEKLAPKEKGITAMSVKEVLQSLVDDGMVDCERIGTSNYYWAFPSKALHARKRKLEALNSQLSEGSQKHADLQKSIEKARVGRQETEERAMLAKELFSFRDQRQQLKAEVEKYRECDPQVVEEIREANKVAKEAANRWTDNIFAIKSWAKRKFGFEESKIDKNFGIPEDFDYIDMSKSRAEAAAGAPGIILRYLQEQNRPYSAQDVFGNLQKEHGLGKAAVVKALDQLAQEGKIKEKTYGKQKIYFADQNQFDTVSDADLHGLDASIVALTAKVQSLQQSCRHMEAELKELTSALTTPEMQKEIQELKKECAQYTERLKNIKAATNHVTPEEKEKVYRDRQKYCKEWRKRKRMTTELCDAILEGYPKSKKQFFEEVGIETDEDHNVLLPDP | soluble
MSKLAELQAETREIIEDLLNDGSEPNALYIIEHHIAHHDFDLLEKIAVDAFKAGYEVSEAEEFKDDDGKPIFCFDIISEVELKAEIIDAQQKEILPLLEKHNGIYDGWGTYFEDPNADDDEYGDDGEFLDDEDEYGDDGEFFDDEDEEEPRVH | not soluble
MSKLGKQDVYYFEGLDDILIAMMTTKDAVGTEPAFGEVVRLPIATKLGIKGNGTALEKWASSKMFRRVSRETKHEIALDHVGIPIAVMDEIKGLIAQSGVTFGKNTAREFPYFAFGFIGNIENGGKKAVWYPKTQLSNVIDEEYTTAEDETKIDDVTANFVSTGLTYNNVMYSSFDSNRDSASIELFEKFIAQPVYDEEQWKKLAGPSRGGGSELEHHHHHH | soluble
MSKLIITDNLEMLTEQGATRRRLLQAGLGACALLAMPAANAAYSRVYEKRVSLLNLHTGERVRTAYWERGKYIPEALRMIEKVLRDHRSGDIHRIDPRLLDLMQHLHHKTGNSKEFQVVSGYRSPATNAALSVQSHGVAKNSLHMQGKAIDIRLPGVPLHVLRRAAMSMHAGGVGYYPKSNFIHIDTGNVRYW | not soluble
MSKLLVVKAHPLTKEESRSVRALETFLASYRETNPSDEIEILDVYAPETNMPEIDEELLSAWGALRAGAAFETLSENQQQKVARFNELTDQFLSADKVVIANPMWNLNVPTRLKAWVDTINVAGKTFQYTAEGPKPLTSGKKALHIQSNGGFYEGKDFASQYIKAILNFIGVDQVDGLFIEGIDHFPDRAEELLNTAMTKATEYGKTF | soluble
MSKMLYRVELIITNKEGVRDPEGETIQRYVVSRFSDKIIETRAGKYLVFRVNSSSQQEATELVKKLADEMRLYNPIVHKIEIRANRIEDSSN | soluble
MSKNKNDYEHMLFYFAYKTFITTADEIIEQYGMSRQHHRFLFFINKLPGITIKELLITLEISKQGSHATLRKLKEEGLIVEQTSKQDRRVKKLFTTEAGDDLIGKLNQAQDELIQQTLQKVGHDWYAMMEELANYREGFKTIEHLKED | soluble
MSKPDDPAYHWNGAELDLDAYLARIGFAGERAPTLATLRELVYRHTTAIPFENLEAVLGRPVRLDLATLQDKLVHSRRGGYCYENAGLFAAALERLGFGVTGHTGRVTMGAGGLRPATHALLRVTTADDDRVWMCDVGFGRGPLRPYELRPQPDEFTLGDWRFRLERRTGELGTDLWVLHQFGRDGWVDRYTFTTAPQYRIDFEVGNHFVSTSPRSPFTTRPFLQRFHSDRHHVLDGLTLITERPDGSADIRALTPGELPEVINELFDIELPGPDLDALTTGSWLERVAAGTP | soluble
MSKTDVKKSREASGILTLQVNLRERRNFLNLMQNKLFSWKIRFSAIKGKCSQKSKYFRRSRSEDCYVEADLKILSRTRRSRKLPGTVPDFLGKQLIGISSSVVSRVSRSCR | soluble
MSKVRVAGFSVSVDGFGAGPEQSLNDPLGKRGPEMFQWFFHTRTFRAMMGKDDGSTGIDEDYASRAMANFGAFILGRNMFGPIRGEWPDDAWKGWWGPNPPYHAPTYVLTHYPREPLVMEGGTTFHFVTGGIHQALDQAKAAAGDKDVKIGGGVATVRQYLQAGLIDELHFAVSPVVLGKGEAMFAGIDLPALDFRVTEHAASEKATHIVLAKLEHHHHHH | not soluble
MSLAADKVVVMLNWYVYGEHAPFYYGKAKGIYAAEGIDLEIQEGRGSAATTQAVAAKTADFGYVDVPTMMRAAIKGAPVVATGVLLQTSPMSAMGFVDKNIRKPEDIKGKTVAITPADSMTQIWPLFLKKTGLKESDFQTVAGDGQTKLNAVINGQADLLLGYVMDQSMKIKDATGKDVYPIKFADYGINMVSSGIIANSDYVKANADLVRRFMSATTKAVEAAEKEPKAAAQSILDANPKGGKIDTLTQGFELTIPLYRTAATKSKRPFQVTEQNMTETVNLLVEYGGLDAKAKDNPKAFYTNDYLPKSGEGHHHHHH | soluble
MSLAADTLRIKQLQRCGDLFSDSQQRWCLCAEGLRANLPTVWLGGTRLSEADIERQGDRLTLKLARQAQRSAPLWLADGGRTSNPVWLTRQRSHVIAAGPDEVAKNMDGLTTYVDLVSLLIEEKYDGLGEARRIAGKYGAQVVGAIPPLNVYQLRLPVEDLVQRDAMVLRMGSEVSVDAVIVEESAPERGEEGNGRGTRAIDQADEWAANRFMDALYFYRRRIAASGLPVKPVRVGVIEREVDFDAPGFSHYRGGCEQGQTCLYARDGNRPASHGSHVAGILAAQGEGFLPGLGKHSPGFEVMVERNSDAGITANIAASVNLVEDGVRVLNWSWGIHRVGARDVNGDEVDSLVRSGLAMSGYEELLEEFFLWLRKEHPDVVVVNSAGNGASWSGTDEYRLPSSFITEQLLVVGGHQRSGKATAVEAHDHVRKRHSSNIDMRVDVSAAACIRPVSAEAAHCGTSYATPLVTATVATMLSINPALTPEQVRMLLRRSALTLGAEQDFEAMDAEDLTAPILPSERGGRLNDPDLGRSARLDMQRALDLAVQSLERVREGHHHHHH | not soluble
MSLAALDPITPAGGGTWRFPANEPLRLDSGGVIEGLEIAYQTYGQLNADKSNAVLICHALTGDQHVASPHPTTGKPGWWQRLVGPGKPLDPARHFIICSNVIGGCMGSTGPASINPATGKTYGLSFPVITIADMVRAQAMLVSALGVETLFAVVGGSMGGMQVQQWAVDYPERMFSAVVLASASRHSAQNIAFHEVGRQAIMADPDWRGGAYAEHGVRPEKGLAVARMAAHITYLSEPALQRKFGRELQRDGLSWGFDADFQVESYLRHQGSSFVDRFDANSYLYITRAMDYFDIAASHGGVLAKAFTRARNVRFCVLSFSSDWLYPTAENRHLVRALTAAGARAAFAEIESDKGHDAFLLDEPVMDAALEGFLASAERDRGLVEGHHHHHH | soluble
MSLACGEFSLIARYFDRVRSSRLDVELGIGDDCALLNIPEKQTLAISTDTLVAGNHFLPDIDPADLAYKALAVNLSDLAAMGADPAWLTLALTLPDVDEAWLESFSDSLFDLLNYYDMQLIGGDTTRGPLSMTLGIHGFVPMGRALTRSGAKPGDWIYVTGTPGDSAAGLAILQNRLQVADAKDADYLIKRHLRPSPRILQGQALRDLANSAIDLSDGLISDLGHIVKASDCGARIDLALLPFSDALSRHVEPEQALRWALSGGEDYELCFTVPELNRGALDVALGHLGVPFTCIGQMTADIEGLCFIRDGEPVTLDWKGYDHFATPEGGSHHHHHH | soluble
MSLADISVIQSLPLSGSQAVTGRALNAGARLYFDWLNLNGGINGETIRLVARDDEQKIEQTVRNVRDMARVDNPVALLTVVGTANVEALMREGVLAEARLPLVGPATGASSMTTDPLVFPIKASYQQEIDKMITALVTIGVTRIGVLYQEDALGKEAITGVERTLKAHALAITAMASYPRNTANVGPAVDKLLAADVQAIFLGATAEPAAQFVRQYRARGGEAQLLGLSSIDPGILQKVAGLDAVRGYSLALVMPNPGKSVNPVIREFNRARAAVGAKDVDLSFRAVEGFVAAKVLAEAIRRAGPKPTREQVRHALTELRDYDVGGGFTVDFTDRSRPGSHYIELGVVGPNGLVIQEGHHHHHH | soluble
MSLADPGREGHLEQRILQVLTEAGSPVKLAQLVKECQAPKRELNQVLYRMKKELKVSLTSPATWCLGGTDPEGEGPAELALSSPAERPQQHAATIPETPGPQFSQQREEDIYRFLKDNGPQRALVIAQALGMRTAKDVNRDLYRMKSRHLLDMDEQSKAWTIYRPEDSGREGHHHHHH | soluble
